Assay: yeast display, Sf9 membrane polyspecificity reagent, FACS + sequencing; frameworks hold sequencing errors
Summary of the method: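 Polyreactivity labels are assigned by the sorting gate from which each nanobody was recovered. The gates were low and high (top ~1%), set on anti-HA fluorescence for expression and streptavidin fluorescence for reagent binding. Before sorting, galactose-induced (36–48 hours) yeast display cells were stained for 1 hour at 4 °C with 10% biotinylated, detergent-solubilized Sf9 membrane reagent.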

Row | Sequence | polyreactivity (PSR sort gate)
1 | QVQLVESGGGLVQAGGSLRLSCAASGSILTPYAMGWYRQAPGKERELVAAISWGDGSTYYADSVKGRFTISRDNAKNTVYLQMNSLNPEDNAVYYCAAVSYYGVDQYRITVYTYEYWGQGTQVTVSS | low polyreactivity
2 | QVQLVESGGGLVQAGGSLRLSCAASGSILVQSAMGWERQAPGKERELVAAISRGGSTNYADSVKGRFTISRDNPKNTVYLQMNSLKPEDTAVYYCAARRPWGEYYWGQGTQVNVSS | low polyreactivity
3 | QVQLVESGGGLVQAGGSLRLSCAASGSILVRYSMGWYRQAPGKERELVAAITSGGSTYADSVKGRFTISRDNAKNTVYLQLNSLNPEDTAVYYCARDYFNREAFDYWGQGTQVTVSS | low polyreactivity
4 | QVQLVESGGGLVQAGGSLRLSCAASGSILVSYAMGWYRQAPGKERELVAAITRSGVRTYYADSVKGRFTISRDNAKNSVYLQMNSLKPEDTAVYYCAADTYRSSSPYGYWGQGTQVTVSS | high polyreactivity
5 | QVQLVESGGGLVQAGGSLRLSCAASGSILWDNAMGWYRQAPGKERELVATISVSGGGTYYADSVKGRFTISLDNAKNTVYLQMNSLKPEDTSVYYCNARYGNESQGWEDYWGQGTQVTVSS | low polyreactivity
6 | QVQLVESGGGLVQAGGSLRLSCAASGSILYFNAMGWYRQAPGKEREFVATIRRSGGSTNYADSVKGRFTISRDNAKNTVYLQMNSVKREDTAVYYCNARLSSGYTSWRYNYWGQGTQVSVSS | high polyreactivity
7 | QVQLVESGGGLVQAGGSLRLSCAASGSILYGYAMGWYRQAPGKERELYASITSDGSSNYADSVKGRFTISRDNAKNTVYFQMNSLKPEDTAVYYCAADVRLIWSASLTTSKYDYWGQGTQVTVSS | low polyreactivity
8 | QVQLVESGGGLVQAGGSLRLSCAASGSILYINTMGWYRQAPGKERELVAAITYSGGSTYYADSVKGRLTISRDNAKNTVYLQMNRLKPEDTAVYYCAADGYYGGYNYWGQGTQVTVSS | low polyreactivity
9 | QVQLVESGGGLVQAGGSLRLSCAASGSILYPTAMGWYTQAPGKEREFVAGITSSGSTYYADSVKGRFTISRDNAKNTVDDQMNSLKPDDTAVYYCATSVYRTYGNSVHRMNYWGQGTQVTVSS | high polyreactivity
10 | QVQLVESGGGLVQAGGSLRLSCAASGSILYPYAMGWYRQAPGKEREFVAAITYGGGRTYYADSVKGRFTISRDNEKNTVYLHMNSLKPEDTAVYYCAARYTYSYPLFGSWGQGTQVTVSS | high polyreactivity
11 | QVQLVESGGGLVQAGGSLRLSCAASGSILYRNAMGWYRQAPGKERELVAGITRRGGSTYYADSVKGRFTISRDNAKNTVYLQMISLKPEDTAVYYCNVQRARRQRQYGYWGQGTQVTVSS | low polyreactivity
12 | QVQLVESGGGLVQAGGSLRLSCAASGSILYTYAMGWYRQAPGKERELVAAISRSGGSTYYADSVKGRFTISRDTAKNTVYLQMNSLKPEDTAVYYCNAVRYLTRLGRYDYWGQGTQVTVSS | high polyreactivity
13 | QVQLVESGGGLVQAGGSLRLSCAASGSILYVNAMGWYRQAPGKERELVAVITSGGSTNNADSVKGRFTISRDNAKNTVYLQMNSLKPEDTAVYYCAADPYSVYGGDYWGQGTQVTVSS | low polyreactivity
14 | QVQLVESGGGLVQAGGSLRLSCAASGSILYYYAMGWYRQAPGKERELVAAISWSGASTYYADSVKGRFTISRDNAKNTVYLQMNSLIPEDTAVYYCNADYTRDRYVANRYYYWGQGTQVTVSS | high polyreactivity
15 | QVQLVESGGGLVQAGGSLRLSCAASGSILYYYAMGWYRQAPGKERELVAAISWSGASTYYADSVKGRFTISRDNAKNTVYLQMNSLKPEDTAVYDCATSYTKQGFRYYYWGQGTQVTVSS | high polyreactivity
16 | QVQLVESGGGLVQAGGSLRLSCAASGSILYYYTMGWYRQAPGQDRELVAAITSSGGSTYYADSVKGRFTISRDNATKTVYLQMNSLKPEDTAVDYCNVDSGRSYRVARYDYWGQGTQVTVSS | low polyreactivity
17 | QVQLVESGGGLVQAGGSLRLSCAASGSIMGWSRQAPGTERELVAAISRGGSTYYADSVKGRFTISRDNAKNTVYLQMNSLKPEDTAVYYCAAKTGGSRSRFEYWGQGTQVTVSS | high polyreactivity
18 | QVQLVESGGGLVQAGGSLRLSCAASGSISATYAKGWYRQAPGKERELVAAISRNGGSTYYADSVKGRFTISRDNAKNTVYLQMNSLKPEDTAVYYCATSSSKSMYWGQGTQVTVSS | high polyreactivity
19 | QVQLVESGGGLVQAGGSLRLSCAASGSISGLYAKGWYRQAPGKERELVAAITFRDGTTSYADSVKGRFTISRDNAKNTVYLQMNSLKPEDTAVYYCAAVDRDSNSSVPTLVHWGQGTQVTVSS | low polyreactivity
20 | QVQLVESGGGLVQAGGSLRLSCAASGSISGYYAMGWYRQAPGKERELVASIRYTGARTYYADSVKGRFTISRDNAKNTVYLQMNSLKPEDTAVYYCAADFKRDRVWGGDYWGQGTQVTVSS | low polyreactivity
21 | QVQLVESGGGLVQAGGSLRLSCAASGSISGYYAMGWYRQAPGKERELVASIRYTGARTYYADSVKGRFTSSRDNAKNTVYLQMNRLKPEDTAVFYCAADKVQYEGDAYGPPQYDYWGQGTQVTVSS | low polyreactivity
22 | QVQLVESGGGLVQAGGSLRLSCAASGSISGYYVMGWYRQAQGKERELVAAITWRGGSTYYADSVKGRFTISRDNAKNTVYLQMNSLKPEDTAVYYCNKVPGRGSTFEYWGQGTQVTVSS | high polyreactivity

Row | Sequence | polyreactivity (PSR sort gate)
23 | QVQLVESGGGLVQAGGSLRLSCAASGSISIGYTMGWYRQAPGKERELVATISWSGGNTYYADSVKGRFTISRDNAKNTVYLQMNSLKPEDTAVYYCAGRWYYYPLLYDYWGQGTQVTVSS | low polyreactivity
24 | QVQLVESGGGLVQAGGSLRLSCAASGSISIGYTMGWYRQSPGKERDLVATISWSGGNTYYADSVKGRFTIARDNAKNTVYLQINSLKPEDSAVYYFAARWYYYPLLYDYWGQGTQVTVSS | low polyreactivity
25 | QVQLVESGGGLVQAGGSLRLSCAASGSISIRNAMGWYRQAPGKERELVAAISRGGSTYYADSVKGRFTISRDNAKNKVYLQMNSLKPEDTAVYYCNVLHLRRTAIMDYWGQGTQVTVSS | high polyreactivity
26 | QVQLVESGGGLVQAGGSLRLSCAASGSISIVYTMGWYRQAPGKERELVATISWSGGNTYYADSVKGRFTISRDYAKNTVYLQMNSLKPEDTAVYYCAARWYYYPLLYDYWGQGTQVTVSS | low polyreactivity
27 | QVQLVESGGGLVQAGGSLRLSCAASGSISRYYAMGWYRQAPGKERELVAAISSNGGSTYYADSVKGRFTISRDNAKNTVYLQMNSLKPEDTAVYYCNAYYVGYIRYWTNKLVDYWGQGTQVTVSS | high polyreactivity
28 | QVQLVESGGGLVQAGGSLRLSCAASGSISSFYAMGWYRQAPGKERELVAGITSGGSTNYADSVNGRFTISRDNAKNTVYLKLNSLNPEDTAVFYCAAERTPSYRAYDYWGKGTQVTVSS | low polyreactivity
29 | QVQLVESGGGLVQAGGSLRLSCAASGSISSKNAMGWYRQAPGKEREFVAVISGTGGSTYYADSVKGRLTISRDNAKNTVYLQMNSLKPEDTAVYYCAAAASSIVSYGYTWTYGYWGQGTQVTVSS | low polyreactivity
30 | QVQLVESGGGLVQAGGSLRLSCAASGSISSQYAMGWYRQAPGKERELVAAISYSGGSTYYADSVKGRFTISRDNAKNTVYLQMNSLKPEDTAVYYCAAETSYYTRWFDGHYYYWGQGTQVTVSS | high polyreactivity
31 | QVQLVESGGGLVQAGGSLRLSCAASGSISSVNVMGWYRQAPGKERELVAAISSGTSTHYADSVKGRFTISRDNAKNTVYLQMNSLKPVDTAVYYCAAYFYRQYLYFLYEYDYWGQGTQVTVSS | low polyreactivity
32 | QVQLVESGGGLVQAGGSLRLSCAASGSISTVNVMGWYRQAPGKERELVAAISSGTSTHYADSVKVRFTISRDNAKNTVYLQMNSLKPEDTAVYYCAAYFYRQYLYFLYEYDYWGQGTQVTVSS | low polyreactivity
33 | QVQLVESGGGLVQAGGSLRLSCAASGSISWHYAMGWYRQAPGKERELVASISTDGGTTYYADSVKGRFTISRDNAKNTVYLQMNSLKPEDTAVYYCAAEWYWVYYVPYEYWGQGTQVTVSS | low polyreactivity
34 | QVQLVESGGGLVQAGGSLRLSCAASGSISYANALGWYRQAPGKERELVAAISGSGGSTYYADSVKGRFTISRDNAKNTVYLQMNSLKPEDTAVYYCAARGFPPGDEWHPYDYWGQGTQVTVSS | low polyreactivity
35 | QVQLVESGGGLVQAGGSLRLSCAASGSISYDYAMGWDRQAPGKERELVASITSRGGSTYADSVKGRFTISRDKAKNTVYLQMNSLKPEDTAVYYCAADAIPNLIFISLPFGLDYWGQGTQVTVSS | low polyreactivity
36 | QVQLVESGGGLVQAGGSLRLSCAASGSISYQNAMGWYRQAPGKERELVAAITSSGGNTYYADSVKGRFTISRDNAKNTVYLQMNSLKPEDTAVYYCNAVLYYDSYLYYYWGQGTQVTVSS | low polyreactivity
37 | QVQLVESGGGLVQAGGSLRLSCAASGSISYRYDKGWYRQAPGKEMELVATIRSGGSTNYADSVKGRFTISRDTAKNTVYLQMNSLKPEDTAVYYGAARLYARKKLHFSADSDYWGQGTQVTVSS | low polyreactivity
38 | QVQLVESGGGLVQAGGSLRLSCAASGSIVAGYAMGWYRQAPGKEREMVAAISDSGGNTYYADSVKGRFTISRDNAKNTVYLQMNSLKPEDTAVYYCAADLGYGPLRELEYWGQGTQVTVSS | low polyreactivity
39 | QVQLVESGGGLVQAGGSLRLSCAASGSIVGGYDMGWYRQAPGKERELVAVINSNGGSTYYADSVKGRFTISRDNANNTVYLQMNSLKPEDTAVYYCAADYESYVYIGYGYWGQGTQVTVSS | low polyreactivity
40 | QVQLVESGGGLVQAGGSLRLSCAASGSIVGRYAMGWYSQAPGQERELVAAISTGDSTYYADSVKGRFTISRDNAKNTVYLQMNSLKPEDTAVYYCNRRGRRVYDYWGQGTQVTVSS | high polyreactivity
41 | QVQLVESGGGLVQAGGSLRLSCAASGSIVGYYFMGWYRQAPGKERELVAAITRSGSTYYADSVKGRFTISRDNEKNTVYLQMNSLKPEDTAVYYCAADGSYYWYTHTTYDYWGQGTQVTVSS | low polyreactivity
42 | QVQLVESGGGLVQAGGSLRLSCAASGSIVNIYAMGWYRQAPGKERQLVARISCSGVSTYYADSVKGRLTISRDHAKNTVYLQMNSLKREDTAVYDCAARYGRVYYYGWYWLYYWGQGTQVTVSS | high polyreactivity
43 | QVQLVESGGGLVQAGGSLRLSCAASGSIVNYYAMGWYRPAPGKERELVAAITSGGSTYYADSVKGRFTISRDNAKNTVYLQMNSLKAEDTAVYYCNKAFPYIYDYWGQGTQVTVSS | low polyreactivity

Source: the nanobody polyreactivity screen of Harvey et al. (2022)
